Measurements as given in US9951110B2, “Neuropeptides useful as insecticides” (THE STATE OF ISRAEL, MINISTRY OF AGRICULTURE & RURAL …, priority 2013, dated 2018).
Ends that are not written are not given here.

Assays:
[1] = test system: Heliothis peltigera female moths; assay: Topical application of agonistic peptides: stimulation of sex pheromone biosynthesis (solvent effect on penetrability); format: in vivo
Protocol: FIG. 6. is a graph showing the effect of a topically applied peptide (Peptide 12 in Table 1) on stimulation of sex pheromone biosynthesis in Heliothis peltigera female moths. • The peptide was tested at a concentration of 300 pmol and was applied in DDW, DMSO and IIS for different times (ranging from 0.5 to 7 h). • Statistical analysis compared pheromone content in the presence of the peptide in a given solvent (DDW, DMSO or IIS) at different time points (indicated by small black letters) and between solvents at the same time point (indicated by capital light grey letters). […] FIG. 7A and FIG. 7B are graphs showing the dose-response of a topically applied peptide [Peptide 12 (7A) and Peptide 11 (7B)] on stimulation of sex pheromone biosynthesis in Heliothis peltigera female moths. The peptide was tested at the indicated concentrations and was applied in DDW, IIS and DMSO for 3 h. • Statistical analysis compared pheromone content in the presence of the peptide in a given solvent (DDW, DMSO or IIS) at different concentrations (indicated by black letters) and between solvents at the same concentration (indicated by capital light grey letters). […] The tested peptides are applied onto the insect (e.g. moths) at scotophase (when pheromone is naturally synthesized) in a given solvent for the indicated times. Examination of the effect of carrier solvent on penetrability and activity was tested as a function of time and concentration with peptides 11 and 12 (see Table 1) which are agonistic peptides, i.e. stimulate sex pheromone production in female moths.

[2] = test system: Heliothis peltigera female moths; assay: Environmental (outdoor storage) stability, read out as sex pheromone production after injection; format: physicochemical; settings: for stability: pheromone-stimulating activity after storage vs peptide stored at -80° C.: direct sunlight, about 31° C.; for stability in the course of storage: 4 weeks
Protocol: FIG. 9. is a graph showing the stability of Peptide 12 in a powder form under different storage conditions. • The stability was evaluated by determining sex pheromone production in Heliothis peltigera females exposed to said peptide. • The storage conditions are: (i) exposure to direct sunlight and an average temperature of about 31° C. for 1 week (“outdoor 1 week”); (ii) room temperature (RT); and (iii) −80° C. • Sex pheromone content is expressed as a percentage of the pheromone content obtained by injection of a peptide stored at −80° C. (defined as 100%). Statistical analysis compared pheromone content generated by injection of a peptide stored at room temperature (RT) for 1 week or a peptide kept for 1 week outdoors with that of the control (a peptide stored at −80° C.). […] FIG. 10A and FIG. 10B are graphs showing the stability of Peptide 12 dissolved in DDW or ITS at a concentration of 1 nmol (10A) or 100 pmol (10B) under different storage conditions. • The stability was evaluated by determining sex pheromone production in Heliothis peltigera females exposed to said peptide. • The storage conditions are: (i) exposure to direct sunlight and an average temperature of about 31° C. for 1 week (“outdoor 1 week”); and (ii) −80° C. • Sex pheromone content is expressed as a percentage of the pheromone content obtained by injection of a peptide stored as a dry powder at −80° C. (defined as 100%). Statistical analysis compared the pheromone content generated by the different treatments with that of the control (a peptide stored at −80° C.). […] FIG. 11A and FIG. 11B are graphs showing the stability of Peptide 12 dissolved in DDW (A) or IIS (B) at a concentration of 1 nmol, and exposed to direct sunlight and temperatures in the range of 27° C. to 31° C. for 1-4 weeks or by a peptide stored at 4° C. for 1-4 weeks. • The stability was evaluated by determining sex pheromone production in Heliothis peltigera females exposed to said peptide. • Activity is expressed as a percentage of that obtained by Peptide 12 stored at −80° C. (defined as 100%, not shown in the figures). • Statistical analysis compared activity at the same storage time at 4° C. and outdoor, and as a function of time within the same treatment (outdoor or 4° C.) as a function of storage time (capital letters). […] This assay is used to test the agonistic properties of the tested peptides (in adult females), and to determine the peptides melanotropic agonistic or antagonistic properties (in larvae). It was also used to determine the activity of peptides that were stored outdoors for different amounts of time. In order to evaluate the environmental stability of the peptides, peptide 12 (in Table 1) was tested. Stability was monitored by exposing a tube containing the peptide, either in the form of a dry powder or in solution made up in either DDW or IIS at a concentration of 100 pmol or 1 nmol, to direct sun light and a temperature range of 27 to 31° C. (“outdoor”). […] Similar results were obtained at a lower dose of the peptide, of 100 pmol (FIG. 10B). The peptide was also tested for stability for 4 weeks when dissolved in either DDW or IIS, at a concentration of 1 nmol, under the same conditions as above at a temperature range of 27° C. to 31° C.

Row | Substance | stimulation of sex pheromone biosynthesis ([1]; 3 h, in DDW and IIS) | stimulation of sex pheromone biosynthesis ([1]; 3 h, in DMSO) | stimulation of sex pheromone biosynthesis: effect of carrier on bioavailability ([1]; 300 pmol, DDW, DMSO and IIS, 0.5 to 7 h) | stimulation of sex pheromone biosynthesis, dose response by carrier ([1]; 3 h, DDW, IIS, DMSO) | stability: pheromone-stimulating activity after storage vs peptide stored at -80° C. ([2]; dissolved in DDW or IIS, 100 pmol, 1 week) | activity of peptide kept outdoor vs at 4° C. at the same storage time ([2]; dissolved in DDW or IIS, 1 nmol, 1-4 weeks) | stability: pheromone-stimulating activity after storage vs peptide stored at -80° C. ([2]; dissolved in DDW or IIS, 1 nmol, 1 week) | stability in the course of storage ([2]; dissolved in DDW, 1 nmol, outdoor 27° C. to 31° C. or 4° C.) | stability in the course of storage ([2]; dissolved in IIS, 1 nmol, outdoor 27° C. to 31° C.) | stability: pheromone-stimulating activity after storage vs peptide stored at -80° C. ([2]; dry powder, 1 week, or room temperature)
1 | Tyr-Phe-Trp-Pro-Arg-Leu-amide (YFWPRL-NH2) [Peptide 11, agonistic peptide lacking a dPhe residue, tested for bioavailability] | barely any activity | very active |  |  |  |  |  |  |  | 
2 | Acetyl-Tyr-Phe-Trp-Pro-Arg-Leu-amide (Ac-YFWPRL-NH2) [Peptide 12, agonistic peptide lacking a dPhe residue, tested for bioavailability and environmental stability] |  |  | IIS has been found to be the best carrier | higher activity in IIS compared to DDW or DMSO | no significant difference | No differences | no significant difference | the activity dropped in the course of storage | much more stable | no significant difference
